According to article PMC10267580:

B1: Rab6B^Q72L, GTPase domain (residues 8-176), constitutively active mutant [mouse] / ELKS1_RBD, Rab-binding domain of ELKS1 (residues 849-922) [rat] (parent)
chain 1: RKHLEEVLEMKQEALLAAISEKDANIALLELSSSKKKTQEEVAALKREKDRLVQQLKQQTQNRMKLMADNYEDD
chain 2: GNPLRKFKLVFLGEQSVGKTSLITRFMYDSFDNTYQATIGIDFLSKTMYLEDRTVRLQLWDTAGLERFRSLIPSYIRDSTVAVVVYDITNLNSFQQTSKWIDDVRTERGSDVIIMLVGNKTDLADKRQITIEEGEQRAKELSVMFIETSAKTGYNVKQLFRRVASALPG

Variants of: B1
Assay: ITC
Settings: with ELKS1_RBD

| Kd [µM] | Variant |
| --- | --- |
| > 50 | chain 2 L4E |

Same assay, conditions: with Rab6B^Q72L

| Kd [µM] | Variant |
| --- | --- |
| 26 | chain 1 S20A |
